Earlier results as cited in PMC4887106.

Target: Histone H4K20me1/2 (Homo sapiens) (UniProt P62805)

- Kd: 10 µM
Substance: MBTD1 4xMBT (from UniProt Q05BQ5)
